Experimental findings from the supplement of paper PMC9112550, “Optimization of the antimicrobial peptide Bac7 by deep mutational scanning” (BMC Biology, 2022) are described below.
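Also: peptides expressed intracellularly from a pBAD plasmid library in pooled LB shake-flask culture, induced with 0.3% L-arabinose, DNA abundance read by NGS, three biological replicates, DESeq2 with apeglm shrinkage.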

This data set has as its system Escherichia coli TOP10. Briefly: shrunken log2 fold change of peptide-encoding DNA abundance (4.5 h post-induction vs induction); higher = less antimicrobial activity (less host growth inhibition). To be noted: time post-induction: 4.5 h; library: site-saturation at positions 5, 18, 19, 20.
As for RRIRDRPPRLPRPRPRPVQEPRP, the “shrunken log2 fold change” value is -0.0575.

For the sequence RRIRSRPPRLPRPRPRPRLQPRP, the “shrunken log2 fold change” value turned out to be 0.307.

On to RRIRARPPRLPRPRPRPKHFPRP, for which the “shrunken log2 fold change” value was determined as 4.03.

Turning to RRIRTRPPRLPRPRPRPDLLPRP, the “shrunken log2 fold change” value is -0.263.

For RRIRTRPPRLPRPRPRPLCPPRP, the “shrunken log2 fold change” value is -0.165.

For RRIRSRPPRLPRPRPRPDDWPRP, the “shrunken log2 fold change” value was determined as 0.155.

For the sequence RRIRGRPPRLPRPRPRPVNMPRP, the “shrunken log2 fold change” value came to 0.189.

Take RRIRKRPPRLPRPRPRPMCLPRP: the “shrunken log2 fold change” value is -0.0392.

RRIRMRPPRLPRPRPRPWHNPRP: the “shrunken log2 fold change” value was -0.0135.

RRIRVRPPRLPRPRPRPDPDPRP: the “shrunken log2 fold change” value was -0.0209.

As for RRIRWRPPRLPRPRPRPVSSPRP, the “shrunken log2 fold change” value is 0.117.

Turning to RRIRERPPRLPRPRPRPPGLPRP, the “shrunken log2 fold change” value came to 0.433.

For RRIRARPPRLPRPRPRPDYQPRP, the “shrunken log2 fold change” value was -0.0168.

In the case of RRIRNRPPRLPRPRPRPSEMPRP, the “shrunken log2 fold change” value was -0.0844.

For RRIRVRPPRLPRPRPRPKFNPRP, the “shrunken log2 fold change” value was -0.42.

On to RRIRGRPPRLPRPRPRPWHEPRP, for which the “shrunken log2 fold change” value is -0.357.

As for RRIRIRPPRLPRPRPRPFWMPRP, the “shrunken log2 fold change” value is -0.192.

For the sequence RRIRHRPPRLPRPRPRPNQCPRP, the “shrunken log2 fold change” value was -0.201.

As to RRIRQRPPRLPRPRPRPENGPRP, the “shrunken log2 fold change” value was -0.0161.

Regarding RRIRDRPPRLPRPRPRPKYEPRP, the “shrunken log2 fold change” value was -0.00728.

With RRIRFRPPRLPRPRPRPCGEPRP, the “shrunken log2 fold change” value was -0.0646.

Turning to RRIRYRPPRLPRPRPRPRGAPRP, the “shrunken log2 fold change” value worked out at 1.34.

As for RRIRRRPPRLPRPRPRPNGNPRP, the “shrunken log2 fold change” value was 0.0494.

Take RRIRFRPPRLPRPRPRPDQDPRP: the “shrunken log2 fold change” value is -0.00191.

Consider RRIRERPPRLPRPRPRPETTPRP, for which the “shrunken log2 fold change” value was found to be 0.165.

In the case of RRIRFRPPRLPRPRPRPDEYPRP, the “shrunken log2 fold change” value is -0.014.

Regarding RRIRPRPPRLPRPRPRPPPHPRP, the “shrunken log2 fold change” value was 0.657.

Take RRIRPRPPRLPRPRPRPNNMPRP: the “shrunken log2 fold change” value was -0.412.

With RRIRHRPPRLPRPRPRPVDNPRP, the “shrunken log2 fold change” value was 0.013.

With RRIRRRPPRLPRPRPRPCKKPRP, the “shrunken log2 fold change” value is 0.0185.

For the sequence RRIRSRPPRLPRPRPRPNKDPRP, the “shrunken log2 fold change” value was -0.651.

Regarding RRIRKRPPRLPRPRPRPHQEPRP, the “shrunken log2 fold change” value is 0.0459.

Consider RRIRIRPPRLPRPRPRPVKYPRP, for which the “shrunken log2 fold change” value was -9.3e-05.

With RRIRDRPPRLPRPRPRPNASPRP, the “shrunken log2 fold change” value turned out to be 0.527.

As to RRIRHRPPRLPRPRPRPKRSPRP, the “shrunken log2 fold change” value was determined as 0.0325.

As to RRIRARPPRLPRPRPRPKSPPRP, the “shrunken log2 fold change” value worked out at 0.425.

As for RRIRDRPPRLPRPRPRPCTEPRP, the “shrunken log2 fold change” value was 0.373.

As for RRIRERPPRLPRPRPRPTFTPRP, the “shrunken log2 fold change” value was -0.134.

RRIRMRPPRLPRPRPRPDDIPRP: the “shrunken log2 fold change” value was -0.00151.

Take RRIRYRPPRLPRPRPRPAKIPRP: the “shrunken log2 fold change” value was -0.0227.

In the case of RRIRYRPPRLPRPRPRPNELPRP, the “shrunken log2 fold change” value was -0.717.

Consider RRIRHRPPRLPRPRPRPFGLPRP, for which the “shrunken log2 fold change” value is -0.0904.

RRIRKRPPRLPRPRPRPWCFPRP: the “shrunken log2 fold change” value came to 0.164.

As to RRIRYRPPRLPRPRPRPAVKPRP, the “shrunken log2 fold change” value is -0.0154.

On to RRIRTRPPRLPRPRPRPMCAPRP, for which the “shrunken log2 fold change” value was -0.0676.

In the case of RRIRPRPPRLPRPRPRPCVYPRP, the “shrunken log2 fold change” value is -0.22.

As for RRIRYRPPRLPRPRPRPHDHPRP, the “shrunken log2 fold change” value stood at 1.33.

As to RRIRRRPPRLPRPRPRPLWPPRP, the “shrunken log2 fold change” value is 0.484.

As to RRIRKRPPRLPRPRPRPVELPRP, the “shrunken log2 fold change” value was found to be 0.111.

With RRIRMRPPRLPRPRPRPQMNPRP, the “shrunken log2 fold change” value is -0.253.

For the sequence RRIRDRPPRLPRPRPRPLMAPRP, the “shrunken log2 fold change” value was determined as 1.09.

With RRIRKRPPRLPRPRPRPTCFPRP, the “shrunken log2 fold change” value amounted to 0.259.

For the sequence RRIRNRPPRLPRPRPRPWADPRP, the “shrunken log2 fold change” value was -0.124.

Regarding RRIRVRPPRLPRPRPRPFCCPRP, the “shrunken log2 fold change” value is -0.0229.

Regarding RRIRQRPPRLPRPRPRPCHTPRP, the “shrunken log2 fold change” value was -0.207.

Regarding RRIRQRPPRLPRPRPRPHNHPRP, the “shrunken log2 fold change” value was -0.811.

With RRIRDRPPRLPRPRPRPLKVPRP, the “shrunken log2 fold change” value is -0.0261.

Turning to RRIRGRPPRLPRPRPRPVTGPRP, the “shrunken log2 fold change” value was found to be 0.21.

For the sequence RRIRWRPPRLPRPRPRPRENPRP, the “shrunken log2 fold change” value is 0.707.

Take RRIRNRPPRLPRPRPRPDTHPRP: the “shrunken log2 fold change” value was -0.105.

As for RRIRDRPPRLPRPRPRPPSLPRP, the “shrunken log2 fold change” value is -0.128.

RRIRTRPPRLPRPRPRPQPPPRP: the “shrunken log2 fold change” value was found to be 0.357.

For RRIRQRPPRLPRPRPRPPDGPRP, the “shrunken log2 fold change” value stood at 0.351.

On to RRIRVRPPRLPRPRPRPPEVPRP, for which the “shrunken log2 fold change” value worked out at 0.0599.

As for RRIRIRPPRLPRPRPRPQLRPRP, the “shrunken log2 fold change” value is -0.203.

As for RRIRQRPPRLPRPRPRPDKSPRP, the “shrunken log2 fold change” value was -0.0319.

On to RRIRERPPRLPRPRPRPMLHPRP, for which the “shrunken log2 fold change” value was -0.542.

RRIRYRPPRLPRPRPRPFKMPRP: the “shrunken log2 fold change” value is -0.673.

For the sequence RRIRGRPPRLPRPRPRPHWPPRP, the “shrunken log2 fold change” value stood at 2.63.

Regarding RRIRNRPPRLPRPRPRPQYCPRP, the “shrunken log2 fold change” value was -0.186.

Turning to RRIRDRPPRLPRPRPRPNSMPRP, the “shrunken log2 fold change” value turned out to be 0.0952.

Regarding RRIRHRPPRLPRPRPRPCMAPRP, the “shrunken log2 fold change” value was -0.213.

With RRIRYRPPRLPRPRPRPHRVPRP, the “shrunken log2 fold change” value is -0.248.

As for RRIRERPPRLPRPRPRPCAAPRP, the “shrunken log2 fold change” value is -0.244.

On to RRIRGRPPRLPRPRPRPYIHPRP, for which the “shrunken log2 fold change” value was -0.252.

On to RRIRLRPPRLPRPRPRPYWVPRP, for which the “shrunken log2 fold change” value is 0.135.

As to RRIRVRPPRLPRPRPRPVCRPRP, the “shrunken log2 fold change” value was -0.0404.

For the sequence RRIRIRPPRLPRPRPRPFVMPRP, the “shrunken log2 fold change” value was -0.275.

Consider RRIRCRPPRLPRPRPRPAHGPRP, for which the “shrunken log2 fold change” value is 0.23.

In the case of RRIRIRPPRLPRPRPRPFQCPRP, the “shrunken log2 fold change” value was 0.00367.

Take RRIRNRPPRLPRPRPRPFIVPRP: the “shrunken log2 fold change” value is -0.279.

Turning to RRIRNRPPRLPRPRPRPLFKPRP, the “shrunken log2 fold change” value is -1.08.

For RRIRPRPPRLPRPRPRPKGNPRP, the “shrunken log2 fold change” value is -0.097.

Take RRIRQRPPRLPRPRPRPNKQPRP: the “shrunken log2 fold change” value was 0.0262.

For the sequence RRIRPRPPRLPRPRPRPGNDPRP, the “shrunken log2 fold change” value is -0.0392.

In the case of RRIRPRPPRLPRPRPRPGPQPRP, the “shrunken log2 fold change” value came out at 0.521.

On to RRIRQRPPRLPRPRPRPYSYPRP, for which the “shrunken log2 fold change” value is -0.337.

RRIRHRPPRLPRPRPRPQSLPRP: the “shrunken log2 fold change” value is -0.00783.

Turning to RRIRWRPPRLPRPRPRPGTTPRP, the “shrunken log2 fold change” value turned out to be 0.0295.

For the sequence RRIRTRPPRLPRPRPRPNHIPRP, the “shrunken log2 fold change” value was -0.825.

Regarding RRIRIRPPRLPRPRPRPYPNPRP, the “shrunken log2 fold change” value is -0.072.

As to RRIRVRPPRLPRPRPRPCLGPRP, the “shrunken log2 fold change” value was -0.069.

With RRIRQRPPRLPRPRPRPINYPRP, the “shrunken log2 fold change” value is -0.0444.

Regarding RRIRTRPPRLPRPRPRPFNHPRP, the “shrunken log2 fold change” value is 0.00676.

On to RRIRCRPPRLPRPRPRPRFAPRP, for which the “shrunken log2 fold change” value amounted to 0.356.

RRIRIRPPRLPRPRPRPERNPRP: the “shrunken log2 fold change” value stood at 0.146.

As to RRIRGRPPRLPRPRPRPWKDPRP, the “shrunken log2 fold change” value was 0.000655.

On to RRIRWRPPRLPRPRPRPRYMPRP, for which the “shrunken log2 fold change” value was -0.139.

Regarding RRIRGRPPRLPRPRPRPFYAPRP, the “shrunken log2 fold change” value turned out to be 0.0161.

With RRIRSRPPRLPRPRPRPMRSPRP, the “shrunken log2 fold change” value turned out to be 0.0162.

Consider RRIRWRPPRLPRPRPRPKYAPRP, for which the “shrunken log2 fold change” value was -0.0417.

For the sequence RRIRDRPPRLPRPRPRPRDNPRP, the “shrunken log2 fold change” value was -0.339.

As to RRIRHRPPRLPRPRPRPLIAPRP, the “shrunken log2 fold change” value is -0.261.

As for RRIRHRPPRLPRPRPRPRHWPRP, the “shrunken log2 fold change” value is -0.0269.

Regarding RRIRWRPPRLPRPRPRPVCEPRP, the “shrunken log2 fold change” value worked out at 0.825.

RRIRGRPPRLPRPRPRPAGNPRP: the “shrunken log2 fold change” value stood at 0.693.

On to RRIRNRPPRLPRPRPRPCQFPRP, for which the “shrunken log2 fold change” value is -0.0212.

Regarding RRIRPRPPRLPRPRPRPVTDPRP, the “shrunken log2 fold change” value is -0.393.

As to RRIRTRPPRLPRPRPRPNNMPRP, the “shrunken log2 fold change” value is -0.346.

RRIRRRPPRLPRPRPRPRNQPRP: the “shrunken log2 fold change” value is -0.0577.

As to RRIRARPPRLPRPRPRPWCIPRP, the “shrunken log2 fold change” value was -0.319.

Turning to RRIRHRPPRLPRPRPRPLIQPRP, the “shrunken log2 fold change” value is -0.0847.

Consider RRIRARPPRLPRPRPRPNQTPRP, for which the “shrunken log2 fold change” value is 0.064.

As to RRIRPRPPRLPRPRPRPDECPRP, the “shrunken log2 fold change” value was -0.041.

Consider RRIRGRPPRLPRPRPRPCQLPRP, for which the “shrunken log2 fold change” value is -0.327.

As for RRIRTRPPRLPRPRPRPIEPPRP, the “shrunken log2 fold change” value is -0.0864.

Take RRIRGRPPRLPRPRPRPLDQPRP: the “shrunken log2 fold change” value stood at 1.01.

Turning to RRIRQRPPRLPRPRPRPCRFPRP, the “shrunken log2 fold change” value came out at 0.00388.

As to RRIRPRPPRLPRPRPRPDHSPRP, the “shrunken log2 fold change” value was -0.082.

Take RRIRCRPPRLPRPRPRPQKVPRP: the “shrunken log2 fold change” value is -0.127.

Consider RRIRYRPPRLPRPRPRPNNEPRP, for which the “shrunken log2 fold change” value was -1.27.

Turning to RRIRTRPPRLPRPRPRPKHTPRP, the “shrunken log2 fold change” value is -0.0343.

As for RRIRPRPPRLPRPRPRPMKLPRP, the “shrunken log2 fold change” value is -0.0874.

In the case of RRIRCRPPRLPRPRPRPQCIPRP, the “shrunken log2 fold change” value was -0.458.

As for RRIRSRPPRLPRPRPRPEHMPRP, the “shrunken log2 fold change” value was -0.391.
